Assay results published in paper PMC12004944.

Target: N-terminal six-histidine-tagged PepV (H6-PepV) (S. aureus) (UniProt Q2FXH9)
Test: pull-down; purified His-tagged bait (H6-PepV or SecA-H6) incubated 1 h at 4°C with cleared lysate of S. aureus RN4220 WT or Δspa, then Ni-NTA resin; immunoblot with αSecA and αPepV sera

Sequence of UniProt Q2FXH9 (Q2FXH9 whole entry): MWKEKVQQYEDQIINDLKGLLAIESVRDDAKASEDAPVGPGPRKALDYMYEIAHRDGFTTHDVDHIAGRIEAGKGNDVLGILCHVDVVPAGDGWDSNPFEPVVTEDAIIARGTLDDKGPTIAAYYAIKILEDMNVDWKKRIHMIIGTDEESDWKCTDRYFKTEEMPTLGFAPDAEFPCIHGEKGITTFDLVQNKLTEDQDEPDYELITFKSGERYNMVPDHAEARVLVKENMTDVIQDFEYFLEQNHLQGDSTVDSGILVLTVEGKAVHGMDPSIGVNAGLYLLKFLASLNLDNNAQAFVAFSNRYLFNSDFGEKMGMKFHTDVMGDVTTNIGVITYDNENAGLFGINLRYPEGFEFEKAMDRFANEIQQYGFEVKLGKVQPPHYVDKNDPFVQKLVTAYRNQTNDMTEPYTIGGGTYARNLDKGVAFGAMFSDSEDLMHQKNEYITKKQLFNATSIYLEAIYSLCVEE

SecA (endogenous, S. aureus RN4220) (from UniProt Q2YSH6 1-843) (natural protein)
SecA eluted from H6-PepV beads with Δspa lysate, percent less than with WT lysate: 30 % less
